Results from patent US20090311253A1 (AbbVie / Abbott, published 2009).

Legend:
Recombinant Human IL-13 [1] = molecular target: T1, Recombinant Human IL-13 (human, UniProt P35225 35-146, limits assumed); assay: Biacore SPR
Recombinant Human IL-4 [2] = molecular target: T2, Recombinant Human IL-4 (human, UniProt P05112 25-153); assay: Biacore SPR
T2 sequence (looked up): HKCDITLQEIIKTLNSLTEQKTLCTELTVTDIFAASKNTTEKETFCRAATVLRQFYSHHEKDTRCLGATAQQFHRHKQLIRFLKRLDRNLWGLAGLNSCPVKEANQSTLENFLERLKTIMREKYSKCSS

Recombinant Human IL-13 [3] = molecular target: T1, Recombinant Human IL-13; assay: direct bind ELISA
Recombinant Human IL-4 [4] = molecular target: T2, Recombinant Human IL-4; assay: direct bind ELISA
Recombinant Human IL-13 [5] = molecular target: T1, Recombinant Human IL-13; assay: cell-based or functional assay
Recombinant Human IL-4 [6] = molecular target: T2, Recombinant Human IL-4; assay: cell-based or functional assay

T1 sequence (P35225 35-146 limits assumed): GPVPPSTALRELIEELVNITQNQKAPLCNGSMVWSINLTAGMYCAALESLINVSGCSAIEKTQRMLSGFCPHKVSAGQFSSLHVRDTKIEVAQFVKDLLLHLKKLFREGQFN

B1: DVD267 (bispecific antibody, human IgG1, kappa)
heavy: not shown
light: DIQMTQSPSSLSASVGDRVTISCRASQDIRNYLNWYQQKPGKAPKLLIFYTSKLHSGVPSRFSGSGSGTDYTLTISSLQPEDIATYYCQQGLTPPLTFGGGTKVEIKRTVAAPDIVLTQSPSSLSASVGDRVTITCKASQSVDYDGDSYMNWYQQKPGKAPKLLIYAASNLESGIPSRFSGSGSGTDFTFTISSLQPEDIATYYCQQSNEDPPTFGQGTKVEIKRTVAAPSVFIFPPSDEQLKSGTASVVCLLNNFYPREAKVQWKVDNALQSGNSQESVTEQDSKDSTYSLSSTLTLSKADYEKHKVYACEVTHQGLSSPVTKSFNRGEC
notes: outer AB051, inner AB027; vectors V1, V2
Kd (Recombinant Human IL-13 [1]): 0.0497 nM
koff (Recombinant Human IL-13 [1]): 8.69e-05 s⁻¹
kon (Recombinant Human IL-13 [1]): 1.75e+06 M⁻¹ s⁻¹
Kd (Recombinant Human IL-4 [2]): 4.86 nM
koff (Recombinant Human IL-4 [2]): 0.000343 s⁻¹
kon (Recombinant Human IL-4 [2]): 70600 M⁻¹ s⁻¹
EC50 (Recombinant Human IL-13 [3]): 5.89 nM
EC50 (Recombinant Human IL-4 [4]): 748 nM
IL-13 Neutralization Assay EC50 (A549 cells, hTARC) (Recombinant Human IL-13 [5]): 0.09 nM
IL-4 Neutralization Assay EC50 (A549 cells, hTARC) (Recombinant Human IL-4 [6]): 0.09 nM
